According to patent US7214663B2, “Tripeptide prodrug compounds” (Medarex, Inc., priority 2001, dated 2007):
Like-named read-outs stand apart in the source and are kept apart here.

How the values were obtained:
[1] = test system: LNCaP (prostate carcinoma) cells; settings: 48 hours, 3H-thymidine incorporation
Protocol: (§1) Adherent cells, LNCaP (prostate carcinoma), HT-29 (colon carcinoma) and PC-3 (prostate carcinoma), were cultured in DMEM media containing 10% heat inactivated fetal calf serum (FCS). On the day of the study the cells were detached from the plate with a trypsin solution. The collected cells were washed and resuspended at a concentration of 0.25×10^6 cells/ml in DMEM containing 10% FCS. 100 μl of cell suspension were added to 96 well plates and the plates were incubated for 3 hours to allow the cells to adhere. […] The plates were then incubated for 24 hours, pulsed with 10 μl of a 100 μCi/ml ^3H-thymidine and incubated for an additional 24 hours (total incubation time 48 hours). The plates were harvested using a 96 well Harvester (Packard Instruments) and counted on a Packard Top Count Counter. Four parameter logistic curves were fitted to the ^3H-thymidine incorporation as a function of drug molarity using Prism software to determine IC50 values.
(§2) Prostate carcinoma cells, LNCaP and PC-3 cells or colon carcinoma cells HT-29, were incubated with increasing concentration of the indicated compounds for 48 hours and cellular proliferation was measured using the ^3H-thymidine assay.

[2] = test system: PC-3 (prostate carcinoma) cells; settings: PC-3, 48 hours, 3H-thymidine incorporation
Protocol: as §1, §2

[3] = Repeat-dose tolerability / repeat dose MTD in tumor bearing mice; assay type: in vivo, mouse; settings: mouse, in vivo, intravenous, five doses, based on efficacy study in Example 12
From the text: (§3) In one study, one animal in each dose group (n=8) was terminated as a possible drug-related toxicity death late in the study, at Days 58 and 57 in the low and high dose-groups respectively. The safety of the compound was evidenced by little body weight loss in either the high or low dose groups (less than 5% of the initial weight) during the 60-day observation period, in surviving animals (FIG. 14). In the other study, both the high and low dose were well tolerated. Only one animal in the high dose group (n=10) had over 15% of body weight loss at the end of the study (Day 61).
(§4) In repeat-dose studies in tumor bearing mice, groups of ten mice were dosed with various amounts of prodrug for a total of five doses at either five day or 1 week intervals. […] Thus, the prodrugs permit a much greater amount of therapeutic agent to be delivered to the body as a whole and thus to the vicinity of the target cell.

[4] = test system: tumor-bearing nude mice; experiment: as above; assay type: in vivo, mouse
From the text: as §3, §4

[5] = Metabolism and clearance of Suc-Leu-Ala-Leu-Dox in mice (plasma, urine); assay type: in vivo, mouse; settings: after single intravenous 117 mg/kg Suc-Leu-Ala-Leu-Dox
Protocol: Plasma samples of 100 μl were transferred to microcentrifuge tubes (1.5 mL) and an internal standard of daunorubicin (20 μL at 0.5 mg/ml) was added together with acetonitrile (400 μl). The tubes were capped and briefly vortexed followed by centrifugation at 14,000 rpm. 420 μl from each tube was removed and dried in vacuo. Each sample was reconstituted in 65 μl 20 mM aqueous ammonium formate (AF) pH 4.5 buffer containing acetonitrile (20%) prior to analysis by reverse phase liquid chromatography in combination with tandem mass spectrometry (LC MS/MS).
Urine was collected at 2 and 24 hours post administration from pairs of mice in metabolic cages. Urine samples were diluted with AF buffer containing acetonitrile (20%) to give a target analyte concentration within the practical range of the LC MS/MS assay. 30 μl of each diluted sample was placed in a micro centrifuge tube (1.5 ml) and an internal standard of daunorubicin (20 μL at 0.5 mg/ml) was added together with 50 μl of AF buffer containing acetonitrile (20%). Each sample was then analyzed by LC MS/MS.
An Agilent HP1100 HPLC with DAD detector and Chemstation software was coupled to a PE Sciex API 365 mass spectrometer with an electrospray ion source. HPLC was performed on a TSK-Gel Super ODS, […], 4.6×50 mm (TosoHaas) reversed phase column equipped with a […] C18 guard disc (Higgins Analytical) and stainless steel frit (Upchurch Scientific). Chromatography was performed at room temperature. The flow rate was 0.5 ml/min. Injection volume was 50 μl. Gradient elution was performed using a mobile phase of AF buffer with increasing amounts of acetonitrile. The API 365 was operated at 365° C. in a multiple reaction monitoring mode, set to monitor specific analyte parent-daughter ion pairs. Integration of chromatograms was performed by MacQuan software (PE Sciex) and quantitation of each analyte obtained by comparison to previously obtained calibration curves. Daunorubicin was used as an internal standard in all cases.

[6] = test system: purified Porcine Kidney CD10; experiment: Hydrolysis by purified CD10; assay type: biochemical
Protocol: Reaction products were analyzed by HPLC with fluorescence detection. Rates were essentially linear over the incubation period. The observed product was Leu-doxorubicin.

[7] = test system: BALL-1 cells (CD10neg); assay type: cell-based, human
Protocol: (§5) In addition to LNCaP, a number of B-cell lines, such as Ramos and Namalwa cells express CD10 (CD10^pos cells).
(§6) Suspension cells, BALL-1, Ramos and Namalwa cells were cultured in RPMI media containing 10% heat inactivated fetal calf serum (FCS). On the day of the study, the cells were collected, washed and resuspended at a concentration of 0.5×10^6 cells/ml in RPMI containing 10% FCS. 100 μl of cell suspension was added to 96 well plates. […] Finally 10 μl of a 100 μCi/ml ^3H-thymidine was added per well and the plates were incubated for 24 hours. The plates were harvested using a 96 well Harvester (Packard Instruments) and counted on a Packard Top Count counter. Four parameter logistic curves were fitted to the ^3H-thymidine incorporation as a function of drug molarity using Prism software to determine IC50 values.

[8] = test system: Ramos cells (CD10pos); assay type: cell-based, human; settings: 24 hours, 3H-thymidine
Protocol: as §5, §6

[9] = test system: Namalwa cells (CD10pos); experiment: cells; assay type: cell-based, human; settings: 24 hours, 3H-thymidine
Protocol: as §5, §6

[10] = test system: healthy young female normal mice
[11] = in vivo; settings: female, ICR, mouse, iv, 100 umol/kg
Protocol: Plasma was obtained from three individual animals in each group at 5 minutes, 1, 2, 4, or 6 hr.

[12] = first experiment, as first stated
[13] = recalculation (about 47% active compound)

SMILES: COc1cccc2c1C(=O)c1c(O)c3c(c(O)c1C2=O)C[C@@](O)(C(=O)CO)C[C@@H]3O[C@H]1C[C@H](NC(=O)[C@H](CC(C)C)NC(=O)[C@H](C)NC(=O)[C@H](CC(C)C)NC(=O)CCC(=O)O)[C@H](O)[C@H](C)O1 [Suc-Leu-Ala-Leu-Dox]
- IC50 [1]: ~1 µM
- IC50 [2]: 50 µM
- MTD at 60 day [3]: ~52 mg/kg
- acute signs of toxicity following repeat administration ([4]; 52 or 63 mg/kg every 5 days for five doses): no acute signs of toxicity
- body weight loss, % of the initial weight ([4]; 52 or 63 mg/kg intravenously every 5 days for five doses, 60-day observation): less than 5%
- Optimal Efficacy Repeat Dose (mg/kg), value in parentheses (doxorubicin equivalent dose) ([4]; Table 11, five doses at five day or 1 week intervals): 38 mg/kg
- Optimal Efficacy Repeat Dose ([4]; Table 11, five doses at five day or 1 week intervals, tumor bearing mice, 60 days): 63 mg/kg
- Plasma 1 hr, percent of administered dose [5]: 1.49%
- Urine 2 hr, percent of administered dose [5]: 9.31%
- Urine 24 hr, percent of administered dose [5]: 2.11%
- dose excreted at 2 h ([5]; female, mouse, in vivo, read-out: Urine 2 hr, percent of administered dose): 9.31%
- % hydrolysis/10 hr ([6]; 12.5 μg/mL, 37° C., pH 7.4, up to 10 hr): 8.3%
- Fraction hydrolyzed relative to standard ([6]; standard Suc-βAla-Leu-Ala-Leu-Dox): 0.75
- fold difference between CD10pos and CD10neg cells [7]: 30-35 fold
- IC50 ([7]; Ball-1 (CD10neg), 24 hours, 3H-thymidine): 78.7 µM
- Ratio Ball-1:Namalwa ([7]; ratio of IC50): 35
- Ratio Ball-1:Ramos ([7]; ratio of IC50): 30
- IC50 [8]: 2.63 µM
- IC50 [9]: 2.27 µM
- equivalent dose of doxorubicin safely administered [10, 12]: 66 mg/kg
- fold higher than possible with doxorubicin alone [10, 12]: approximately 8 fold
- mortalities over the 28-day study ([10]; intravenous 23-117 mg/kg): no mortalities
- single-dose MTD ([10]; intravenous, mice, 28-day study, first experiment, doses as first stated): greater than 117 mg/kg
- equivalent dose of doxorubicin safely administered [10, 13]: 70 mg/kg
- fold higher than possible with doxorubicin alone [10, 13]: approximately 3.3 fold
- single dose MTD, fold higher than doxorubicin alone ([10]; repeated experiment): at least 1.2 fold
- AUC [11]: 634 µM·h
